The results in this text go back to article PMC5223209, “New insights into the GINS complex explain the controversy between existing structural models” (Scientific Reports, 2017).

This data set concerns the molecule itself. Put plainly: negative-stain electron microscopy; gel-filtration fractions of the low and the high MW peak stained and visualised by EM.

B1: S. cerevisiae GINS complex (complex)
chain 1: MDINIDDILAELDKETTAVDSTKITQGSSSTTHRDANTIVGSSLDLNDKTQIYVSPQQDFSDLMKSWKNERCSPELLPYPHQLMKRLLNRISMQSQLIENISMGFLDMQNASNANPPMPNESKLPLLCMETELERLKFVIRSYIRCRLSKIDKFSLYLRQLNEDENSLISLTDLLSKDEIKYHDTHSLIWLKLVNDSILKYMPEELQAINDTEGSVNMIDEPDWNKFVFIHVNGPPDGKWNEDPLLQENEFGKPCYTVTIPDLKEEVELTIGSIYVMRYEVIRDLLRDDKVALI
chain 2: MYGDLGNKLVLEAKRTKQLYARSNQDVNLPMYHEDIIRNILKEVSNLRKNTEYLKEQQQLGMLDDKVAKCQYFVTLLCMERNKRCLLAYQRLRTDILDSMAWNNNGLDLMSSITFSQQDTNNLSHQEQEYLKEYCDLITDLKSGDLVDIDLSGSLVPPSDVFIDVRVLKDAGEIQTEYGVFNLIKDSQFFVRQSDVERLIQQGYLQKI
chain 3: MSLPAHLQQTFSPEEIQFIVENEPIKIFPRITTRQKIRGDDRGTGNHTRWQLITTDDKALNNMVAMRSTEVVLWIALLLKQQSKCSIVAPQWLTTKELDRKIQYEKTHPDRFSELPWNWLVLARILFNKAKDDFHDPIHELRGKIQDLREIRQIKVLKGLKYLNESHLQLDNLSLLEINELRPFITEIMDKLREIHTASLTAGTENDEEEFNI
chain 4: MGYYDIDDVLADGTEFPCKFQYDIPGLGYLENNPGRPITKNTKLSLPLWLARILAIVGGDEALVDEEPVPFVELLPPDMFSTKVMNAIKTDPVALDLHSINSHFFSLAIKWIMLFSEKELANVVSELLLQRAQELNHHASSLSIDLNADSTGKNSANTNIATSTFLLKLEEMEKEIYKKSHESYKDTKRWMFKK
notes: Sld5 subunit of the S. cerevisiae GINS complex; Psf1 subunit of the S. cerevisiae GINS complex; Psf2 subunit of the S. cerevisiae GINS complex; Psf3 subunit of the S. cerevisiae GINS complex; details may be in the Supplementary Information; also called yeast GINS complex; copies: + + +
Regarding B1, the binding result is reported as “binds”.
